This note sets out measurements from patent publication US20130149309A1.

The target of this test is amyloid precursor protein C-terminal fragment (APP-CTF), P05067. Briefly: co-immunoprecipitation, HEK293 cells, with 10 µM imatinib. To be noted: remark: other sources report otherwise.
Chain of amyloid precursor protein C-terminal fragment (APP-CTF), P05067 (P05067 672-770 limits assumed): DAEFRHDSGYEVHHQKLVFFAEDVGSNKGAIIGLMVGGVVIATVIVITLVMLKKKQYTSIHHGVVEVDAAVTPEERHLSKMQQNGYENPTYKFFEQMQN

B1: gSAP-16K-HA (16 KDa C-terminal fragment, amino acid sequence 733-854, of gSAP with a C-terminal HA tag), A4D1B5 733-854 (protein, human, UniProt A4D1B5 733-854, looked up, not shown: small tags and cut ends)
chain: RLMKDLDNTEKNEKLKFSIIVRLPPLIGQKICRLWDHPMSSNIISRNHVTRLLQNYKKQPRNSMINKSSFSVEFLPLNYFIEILTDIESSNQALYPFEGHDNVDAEFVEEAALKHTAMLLGL
For the molecule B1, the reduction of the interaction by imatinib (10 µM) worked out at 47%.
